Reference: patent US20170327556A1, “CARTILAGE-BINDING FUSION PROTEINS” (Merrimack Pharmaceuticals, Inc., priority 2013, published 2017)

Legend:
[1] = Stability of GF-Fus3 in human synovial fluid (western blot); assay type: in vitro ADME
Procedure: Synovial fluid was harvested from two human donors (see Table 14) within 24 hours of death, flash frozen and stored at −80° C. 2 μL of GF-Fus3 (0.45 mg/mL in PBS, Life Technologies Cat#10010-031) was added to 18 pt of synovial fluid (final GF-Fus3 concentration is 45 μg/mL) in a sealed 200 μL PCR tube and incubated at 37° C. for 0, 24, 48, 72, or 96 hours. Samples were diluted 1:10 in PBS and 10 μL (45 ng of GF-Fus3) was mixed with 3.3 μL of NuPAGE LDS Sample Buffer (Life Technologies, Cat# NP0007). GF-Fus3 standards were prepared at 100, 200, 400, 800, and 1600 ng/mL and 10 μL of each solution was mixed with 3.3 uL of NuPAGE LDS Sample Buffer. All samples and standards were loaded onto a 4-12% NuPAGE Bis-Tris Gel (Life Technologies, Cat# NP0321BOX), and run in NuPAGE MES SDS Running Buffer (Life Technologies, Cat# NP0002). Protein was transferred to a nitrocellulose membrane using an iBlot kit (Life Technologies, Cat# IB301001). Membrane was blocked in Odyssey Blocking Buffer (LI-COR, Cat#927-40000) for 1 hour at room temperature with agitation. Membrane was washed twice in PBS with 0.05% Tween20 (PBS-T) and incubated in 2 μg/mL anti-IGF-1 antibody (Millipore, Cat#05-172) overnight at 4° C. Membrane was washed three times in PBS-T and incubated with IRDye 800CW goat anti-mouse antibody (LI-COR, Cat#827-08364) diluted 1:2000 for 1 hour at room temperature. […]

[2] = test system: bovine cartilage explants; assay: In vitro joint disease model (IL-1), explanted bovine cartilage: ^35S-sulfate incorporation; assay type: cell-based; settings: 4 and 12 day treatments, IL-1, FIG. 16
[3] = ELISA binding of fusion proteins to chondroitin sulfate coated plates; settings: 6x-Histidine-tagged proteins, FIG. 1B
Procedure: The specificity of binding of fusion proteins to the polysaccharides heparan sulfate and chondroitin sulfate may be determined by measuring the ability of the proteins to bind polysaccharides coated on an ELISA plate. Heparin Binding Plates (BD Biosciences) are coated with 50 μl of 2-10 μg/mL concentration of heparan sulfate or chondroitin sulfate (Sigma-Aldrich®) and incubated overnight at room temperature. Plates are washed with PBS and blocked with 250 μl of 0.2% gelatin in PBS for 1 hour at 37 C. Plates are then washed with PBS and tapped dry. 50 μl of protein in a dilution series is added to the wells and incubated for 2 hours at 37 C. The protein dilution series starts from 100 nM and includes ten additional three-fold dilutions in PBS, 0.2% gelatin and one blank (PBS, 0.2% gelatin only). After the plates are washed in PBS, 50 μl of anti-human IGF-1 (Abcam) at 1:250 in PBST is added and the plates are incubated for 1 hour rotating at room temperature. Plates are washed with PBST and 100 μl of 1:1000 anti-Rabbit-HRP (Cell Signaling Technology®) in PBST is added to each well and the plate is incubated for 1 hour at room temperature. […] The absorbance is measured at 450 nm and the resulting data is analyzed using GraphPad Prism® (GraphPad Software, San Diego, Calif.). […]

Substance: GF-Fus3: C-terminal fusion IGF-1(LR3)-PRELP heparin binding domain
- protein degradation band at less than 7.5 kDa ([1]; 45 ng loaded, after incubation in synovial fluid at 37° C.): ≤ 1 ng
- protein degradation in synovial fluid ([1]; 96 hours of 37° C. incubation, donors with grade 1 and grade 3 cartilage degeneration): minimal protein degradation
- cartilage matrix synthesis compared to GF-Fus3-His [2]: equivalent
- binding to chondroitin sulfate [3]: bound
